# In US20250034594A1, “RNA-GUIDED GENOME RECOMBINEERING AT KILOBASE SCALE” (THE BOARD OF TRUSTEES OF THE LELAND STANFORD JUNIOR …, priority 2021, published 2025):
# B1: SSAP_252: SEQ ID NO: 421; Bacteroides pyogenes DSM 20611 = JCM 6294 (protein)
# chain: QVADPQSVLNSAVIAATLDLPINPNLGFAAIVPYNDRKSGKCIAQFQLMYKGLVELCLRSGQFASLIDEVVYEGQIVKKNKFTGEYIFDEDAKTSNKVIGYMAYFRLVNGFEKTFYMTSEEVTAHAKAYSQSFKSGYGVWKDNFDIMARKTVLKLLLSKYAPKSIEMQRAITFDQAAVKGDLTETNVDEAEIEYIDNESGSDKIKQAAEDAVIQSQQKTLL
# modifications: Bacteroides pyogenes
# B2: SSAP_5: SEQ ID NO: 174 (protein)
# chain: ANELGIFSVDNLNMTTIKQYLDGGGKASDAELVLLINLCKQNNMNPFMKEVYFIKYGNQPAQIVVSRDFYRKRAFQNPNFVGIEVGVIVLNKDGVLEHNEGTFKTHEQELVGAWARVHLKNTEIPVYVAVSYDEYVQMKDGHPNKMWTNKPCTMLGKVAESQALRMAFPAEFSGTYGEEEYPEPEKEPREVNGVKEPDRAQIESFDKEDYAAKKIEELKEKAQPQKEVVEETGEVIDEEPLEGF
# B3: SSAP_102: SEQ ID NO: 271; Halomonas coralii (protein, listed as Halomonas coralii)
# chain: TDQATAEPQEDLGKQLQQHSQRKPMPTTIQGMLKDDRFTGQIARALPKHITPDRISRIALTEVNKTPALGKCDPMSLFGSIIQSAQLGLELGGALGHAYLVPYKDQAQFIIGYRGMIDLARRSGQMVSLQAHTVHENDDFEFEYGLDEKLRHVPARGQRGPMIAVYAVAKLTGGGHQIEVMWKEDVDAIRQQSKAGNSGPWRDHYEEMAKKTAIRRLFKYLPVSVEMQKAVSLDEQAEAGVQDNNVFDGEFSYQEPE
# B4: SSAP_316: SEQ ID NO: 485; Companilactobacillus kedongensis (protein, listed as Companilactobacillus kedongensis)
# chain: MKDLARIPVKELVRSDTIKSKFNDVLGKRAPQFISSIVNIVNSNQDLKNVDQTSVISSALVAASLDLPINQSFGYMYLVPYSGKAQPQMGYKGYIQLAQRSGQYKRLNAISVSKEKVPDKMVIFIPDYRMEEAETQIDMYQDHIEDVKAGRVEPTRCGKCDYCKSTAKLGKIVSMDDLID
# B5: SSAP_138: SEQ ID NO: 307; unclassified Coprococcus (protein, listed as Coprococcus sp.)
# chain: ANNIDLKQELAEQASKVPAKKDEEVKLTKSMTIPDMVKAMMPEIKKALPAVMTPERFTRIALSALNTTPALNQCTPMSFLAALMNAAQLGLEPNTPLGQAYLIPYKNHGTLECQFQIGYKGLIELAYRSGQMQTIQAQTVYENDEFAYQYGLEPVLVHRPAYSDRGEVKYFYGIFKTVNGGYGMAVMSRAEMDLYAKTYSKAYDSSYSPWKSNYEDMAKKTVIKQALKYAPIKTDFQRALSFDETIKKEISLDMSTVKNELLDVA
# B6: SSAP_178: SEQ ID NO: 347; Streptomyces sp. MZ04 (protein, listed as Streptomyces sp.)
# chain: STNLAARVEARRQNPTTKQPARRGKAAQQPTLVQFVQSMRGEIARALPSHVASPERIARIALTELRRVDHLAECTQESFGGALMTCAALGLEPGGVGGEAYLLPFWNKKVRAYEVTLVIGYQGMVRLFWQHPAAAGLAAHTVHEGDEFDFEYGLEPFLRHKPARTGRGKPTDYYAVAKMANGGSAFVVMNVEDIEAIRHRSKARDAGPWSTDYGLRRHGAQDLHSAVVQVAAEVC
# B7: SSAP_187: SEQ ID NO: 356; Staphylococcus warneri (protein, listed as Staphylococcus warneri)
# chain: ATQNDFKNQITDKKENKPQQSTNPRQVASDLLERMKPEIAKALPAHMSQDRMTRIALSAVNSNPKLSEVILNNPTSFLGALMQSAQLGLEPNTNLGHAYLIPYGNIVQLQLGYLGLLELAYRSGKYQKIMAMPVYKDDFFEYQYGTDEKLNHIPAQQQTGDAVGYYAFYKLTNGGTHFVYWSRQKMNMHQQQYSKGGNVWRNNFDAMALKTVIKDVLKYAPKSIEMGEAVTSDNNNFDFKDGGDIIDVTDYETEEN
# B8: SSAP_270: SEQ ID NO: 439; Lactococcus sp. DD01 (protein, listed as Lactococcus sp.)
# chain: ANLTPTQTVLKSDAAKRKFEEVLGKKTNGFVGSLLSLVGSTNLKNVDSNSVMTAAMKAATLDLPIEPSLGFAYVIPYGREAQFQIGYKGLIQLAIRSGQVTKLNAGPVYENQFIKYDSLFEELEIDFSMPQGVEIAGYFASMELANGFRKIIYWDKEKVTAHGKRFSKSFNRSSSPWQTDFDAMATKTVLKAMLSTYAPLSTEMQQAIVADNESATPKDATPVTDDLVLEAVEDSKQIEENEIINDQVASENYQEPQGEPEVLDLEL
# B9: SSAP_71: SEQ ID NO: 240 (protein)
# chain: SNNELLAKPVEFEVNGEAVKLTGKTVKNFLVSGNGEVSDQEVVMFINLCKYQKLNPFLNEAYLVKFKSKSGPDKPAQVIVSKEAFMKRAEKHPNYEGFEAGIIVERDGQLVDIEGAIKLTNDKLVGGWARVYRSDRQKPITTRISLSEFSKGQSTWNSMPLTMIRKSAIVNAQREAFPETLGALYTEDDAKLDTTSSHDQEQVIEQEIKTKANQEVIDVEYTEESEQKSPQQEQTETTQAGPGF
# B10: SSAP_69: SEQ ID NO: 238 (protein)
# chain: ETIDIKQELASQAQTDSKKEVKLTKAMSIAEMIKAMMPEIKRALPSMITPERFTRIALSALNNTPELQACTPMSFISALLNAAQLGLEINSPLGHAYLIPYKNKGVLECQFQIGYLGLIALAYRNELMQTIQAQCVYENDEFLYEYGLNPKLVHRPATSDRGEPVFFYGLFKMINSGFGFCVMSKQEMDEFARTYSKGLASSFSPWKTSYNEMAKKTVIKQALKYAPIKTDFQKALSTDESIKYAISEDMTEAVNEIVSQNTEVA
# B11: SSAP_22: SEQ ID NO: 191 (protein)
# chain: SNELMTKAVTYEVNNEEVKLSGQIVKQYLTSGQAVTDQEVTMFIQLCRYQHLNPFLNEAYLVKFNGKPAQIITSKEAFMKRAESNPNYAGLKAGCIVERNGELIYTEGAFTLKTDNILGAWADVIRKDRREPTHVEISMDEFSKSQATWKSMPATMIRKTAIVNALREAFPQDLGALYTEDDKNPNEATQTTYKQEPEVNTTKTADVLAKKFSGAPQIKSVENVQESEEESNNASNHGEATEPVNNVEEPTATAEVEQGQLL
# B12: SSAP_49: SEQ ID NO: 218 (protein)
# chain: TNNQLATQTKRNITTDPSLLTGADIKKYFDPQNLLTEKQVGQALALCKGRNLNPFANEVYIVAYTNRNGGKEFSLIVSKEAFLKRAAQCKDYEGFEAGVVVVDSEGVMHERKGAIMLPEDTLIGGWARVHRKNFKVPVEIVVSREEYDKKQSTWNTMPATMIRKVALVNALREAFPEDLGNMYTEDDGGETFDRIKDVTPQESREDVVARKMAEIEQFNKEQETNHADPEPAQTEETIQGELLDGELEY
# B13: SSAP_11: SEQ ID NO: 180; Bet Lactococcus phage phiLC3 (protein, listed as Lactococcus lactis)
# chain: ANEIDIYDAKNLNTATVKKFLKGGGQASDEELAMLLAISRNQNMNPFMKEVYFIKYGSAAAQIVVSRDFYRKRAFQNPNFAGIEVGVIVLNKDGVLEHNEGTFKTKDQELVGAWARVHLKNTEIPVYVAVSYDEYVQMKNGQPNSMWTNKPCTMLGKVAESQALRMAFPAEFSGTYGEEEYPEPEKEPREVNGVKEPDRAQIESFDKENYAARKIEELKEKAQPQKEFVEEIGEAIDEITAEDF
# Legend:
# Type in all cases: cell-based
# gene editing with Cas9 = assay: Screen of 322 new SSAP proteins, gene editing activity with Cas9 (Table 5); design: Cas9 with SSAP activity: scale not given here
# In short: (§1)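 First, 322 new single-strand annealing proteins are identified from sequences. Next they are synthesized. Finally each is assayed for editing in combination with Cas9 and, separately, dCas9.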
# gene editing with dCas9 = assay: Screen of 322 new SSAP proteins, gene editing activity with dCas9 (Table 5); design: dCas9 with SSAP activity: scale not given here
# In short: as §1
# [1] = system: gene editing with Cas9 and dCas9; assay: Screen of 322 new SSAP proteins, activity across all experiments (Cas9 and dCas9, Table 5); design: scale not given here
# In short: as §1
Molecule,Cas9 with SSAP activity (gene editing with Cas9),Cas9 with SSAP activity (normalized) (gene editing with Cas9),dCas9 with SSAP activity (gene editing with dCas9),dCas9 with SSAP activity (normalized) (gene editing with dCas9),Activity across all experiments [1]
B1,−0.275,−0.560,−0.876,−0.635,−0.575
B2,−0.026,−0.032,−0.854,−0.392,−0.440
B3,−0.118,−0.065,−0.784,−0.325,−0.451
B4,0.465,0.410,−0.764,−0.279,−0.150
B5,−1.429,−0.887,−1.000,−0.320,−1.214
B6,−1.057,−0.929,−0.807,−0.626,−0.932
B7,0.257,0.239,−0.498,−0.164,−0.120
B8,0.154,0.174,−0.896,−0.293,−0.371
B9,−1.797,−2.283,−0.701,−0.555,−1.249
B10,−5.286,−0.810,−0.742,−0.240,−3.014
B11,1.789,4.337,−0.792,−0.867,0.498
B12,−0.515,−0.176,−0.987,−0.289,−0.751
B13,−1.791,−0.870,−0.655,−0.866,−1.223
